Source: PMC4728409
Values belong to the substance of their own block, whether it stands above or below them.

What was measured:
BRCA1 BRCT domain = BRCA1 BRCT domain (UniProt P38398); test: far-Western, GST-BRCT overlay on His-UHRF1; conditions: reference: kinase-treated His-UHRF1 WT; sites S674
BRCA1 = BRCA1 (UniProt P38398); test: co-immunoprecipitation; conditions: reference: wild type; sites S674
[1] = target: phosphorylated pS674 peptide of UHRF1 (human (RefSeq NP_037414.3)); test: SPR; BIAcore; biotinylated peptides on a streptavidin chip (about 250 RU); GST-BRCA1-BRCT as analyte, 39 nM to 2.5 μM (legend: 17 nM to 2.5 μM), 30 μl min^-1; 150 mM NaCl, 0.005% Polysorbate 20, 10 mM HEPES pH 7.4, 1 mM PMSF

binding against the reference (BRCA1 BRCT domain): lost
Substance: UHRF1 (from UniProt Q96T88-2) kinase-treated His-UHRF1 S674A

binding against the reference (BRCA1): weaker
Substance: UHRF1 (from UniProt Q96T88-2) S674A

Kd [1]: 356 nM
Substance: GST-BRCT (wild type) domain of BRCA1 (domain or fragment)
